Target: Adeno-associated virus type 2 (AAV2) capsid viral protein VP3 (adeno-associated virus type 2)
Assay: cryo-EM structure

Substance: Adeno-associated virus type 2 (AAV2) capsid viral protein VP3 (natural protein)
- stoichiometry N: 60

From PMC9911311
